Assay results as given in US20130052739.

Target: T1, FLP recombinase (native yeast) (Saccharomyces cerevisiae) (UniProt P03870)
T1 sequence: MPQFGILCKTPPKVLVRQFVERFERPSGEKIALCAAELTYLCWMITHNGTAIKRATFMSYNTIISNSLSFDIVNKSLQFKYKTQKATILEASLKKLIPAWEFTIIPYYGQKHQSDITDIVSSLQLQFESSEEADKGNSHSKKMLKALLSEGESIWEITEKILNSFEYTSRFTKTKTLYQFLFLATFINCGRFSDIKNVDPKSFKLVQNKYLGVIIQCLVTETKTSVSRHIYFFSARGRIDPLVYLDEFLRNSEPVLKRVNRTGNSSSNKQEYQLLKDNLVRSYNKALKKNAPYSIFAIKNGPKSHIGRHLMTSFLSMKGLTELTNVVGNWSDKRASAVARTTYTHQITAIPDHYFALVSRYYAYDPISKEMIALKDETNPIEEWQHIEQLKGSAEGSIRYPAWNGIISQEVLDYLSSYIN
Assay: not given
Settings: in vitro co-integration FRT1+FRT1, 10 mM MgCl2, 5 mM DTT

**Q.** How did the activity (% co-integrants at 2 h) turn out when “AGTTCCTATACTTTCTAGAGAATAGGAACT (double strand) [FRT1 (wild-type minimal FRT)]” was run?
**A.** The activity (% co-integrants at 2 h) was 1.03.

Same assay, conditions: in vitro co-integration FRT5+FRT5, 10 mM MgCl2, 5 mM DTT

**Q.** With “AGTTCCTATACTCTTTTGAGAATAGGAACT (double strand) [FRT5]” as the sequence, how does the activity (% co-integrants at 2 h) read?
**A.** Its activity (% co-integrants at 2 h) is 0.09.

Same assay, conditions: in vitro co-integration FRT6+FRT6, 10 mM MgCl2, 5 mM DTT

**Q.** For “AGTTCCTATACTTTTTGAAGAATAGGAACT (double strand) [FRT6]”, which activity (% co-integrants at 2 h) is on record?
**A.** Its activity (% co-integrants at 2 h) is 0.27.

Target: T1, FLP recombinase (native yeast) (Saccharomyces cerevisiae)
Assay: cleavage_in_vitro
Settings: 30 C, 10 mM MgCl2

**Q.** With “AGTTCCTATACTATACAAAGAATAGGAACT (double strand) [FRT70]” as the sequence, how does the activity (% excision efficiency relative to FRT1) read?
**A.** Its activity (% excision efficiency relative to FRT1) is 25.

**Q.** Which activity (% excision efficiency relative to FRT1) does the source give for “AGTTCCTATACTCCACAGAGAATAGGAACT (double strand) [FRT55]” here?
**A.** Its activity (% excision efficiency relative to FRT1) is 7.

**Q.** With “AGTTCCTATACTCTATGTAGAATAGGAACT (double strand) [FRT12]” as the sequence, how does the activity (% excision efficiency relative to FRT1) read?
**A.** The activity (% excision efficiency relative to FRT1) was 102.

**Q.** How did the activity (% excision efficiency relative to FRT1) turn out when “AGTTCCTATACTCTCTAGAGAATAGGAACT (double strand) [FRT89]” was run?
**A.** The activity (% excision efficiency relative to FRT1) was 39.

**Q.** Which activity (% excision efficiency relative to FRT1) does the source give for “AGTTCCTATACTCTCTTGAGAATAGGAACT (double strand) [FRT45]” here?
**A.** The activity (% excision efficiency relative to FRT1) was 5.

**Q.** “AGTTCCTATACTCTTTTGAGAATAGGAACT (double strand) [FRT5]” was tested. Which activity (% excision efficiency relative to FRT1) did it give?
**A.** The activity (% excision efficiency relative to FRT1) was 15.

**Q.** Which activity (% excision efficiency relative to FRT1) does the source give for “AGTTCCTATACTGAAAAGAGAATAGGAACT (double strand) [FRT78]” here?
**A.** The activity (% excision efficiency relative to FRT1) was 60.

**Q.** How did the activity (% excision efficiency relative to FRT1) turn out when “AGTTCCTATACTGAGAGAAGAATAGGAACT (double strand) [FRT74]” was run?
**A.** The activity (% excision efficiency relative to FRT1) was 5.

**Q.** How did the activity (% excision efficiency relative to FRT1) turn out when “AGTTCCTATACTGATTGGAGAATAGGAACT (double strand) [FRT65]” was run?
**A.** Its activity (% excision efficiency relative to FRT1) is 18.

**Q.** With “AGTTCCTATACTGTAAAAAGAATAGGAACT (double strand) [FRT53]” as the sequence, how does the activity (% excision efficiency relative to FRT1) read?
**A.** The activity (% excision efficiency relative to FRT1) was 64.

**Q.** How did the activity (% excision efficiency relative to FRT1) turn out when “AGTTCCTATACTGTAATGAGAATAGGAACT (double strand) [FRT34]” was run?
**A.** The activity (% excision efficiency relative to FRT1) was 34.

**Q.** Which activity (% excision efficiency relative to FRT1) does the source give for “AGTTCCTATACTTCCATAAGAATAGGAACT (double strand) [FRT76]” here?
**A.** The activity (% excision efficiency relative to FRT1) was 30.

**Q.** Which activity (% excision efficiency relative to FRT1) does the source give for “AGTTCCTATACTTCCGAGAGAATAGGAACT (double strand) [FRT43]” here?
**A.** Its activity (% excision efficiency relative to FRT1) is 14.

**Q.** For “AGTTCCTATACTTTAGGTAGAATAGGAACT (double strand) [FRT62]”, which activity (% excision efficiency relative to FRT1) is on record?
**A.** Its activity (% excision efficiency relative to FRT1) is 72.

**Q.** How did the activity (% excision efficiency relative to FRT1) turn out when “AGTTCCTATACTTTCTCGAGAATAGGAACT (double strand) [FRT86]” was run?
**A.** Its activity (% excision efficiency relative to FRT1) is 12.

**Q.** How did the activity (% excision efficiency relative to FRT1) turn out when “AGTTCCTATACTTTCTGGAGAATAGGAACT (double strand) [FRT87]” was run?
**A.** The activity (% excision efficiency relative to FRT1) was 93.

**Q.** “AGTTCCTATACTTTCTTGAGAATAGGAACT (double strand) [FRT85]” was tested. Which activity (% excision efficiency relative to FRT1) did it give?
**A.** The activity (% excision efficiency relative to FRT1) was 116.

**Q.** How did the activity (% excision efficiency relative to FRT1) turn out when “AGTTCCTATACTTTTCTAAGAATAGGAACT (double strand) [FRT57]” was run?
**A.** The activity (% excision efficiency relative to FRT1) was 82.

**Q.** How did the activity (% excision efficiency relative to FRT1) turn out when “AGTTCCTATACTTTTGTGAGAATAGGAACT (double strand) [FRT69]” was run?
**A.** The activity (% excision efficiency relative to FRT1) was 9.

Same assay, conditions: reference pair; 25 mM Tris pH 7.5, 10 mM MgCl2, 5 mM DTT, 30 C 30 min

**Q.** With “AGTTCCTATACTTTCTAGAGAATAGGAACT (double strand) [FRT1 (wild-type minimal FRT)]” as the sequence, how does the activity (% excision efficiency relative to FRT1) read?
**A.** The activity (% excision efficiency relative to FRT1) was 100.
